assay: yeast display, Sf9 membrane polyspecificity reagent, FACS + sequencing; frameworks hold sequencing errors
Method in brief: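 After 36–48 hours of galactose induction, yeast (Saccharomyces cerevisiae BJ5465) displaying a synthetic nanobody library were stained at 4 °C for 1 hour with 10% biotinylated, detergent-solubilized Sf9 membrane reagent. Streptavidin microbeads enriched the stained cells before FACS sorting into low and high (top ~1%) gates on anti-HA and streptavidin fluorescence. Each clone's polyreactivity label reflects its gate of origin.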

| Sequence | polyreactivity (PSR sort gate) |
| --- | --- |
| QVHLVESGGGLVQAGGSLRLSCAASGSTFYYNAIGWYRQAPGKERELVARISRSGGSTYADSVKGRFTISRDKAKNTFYLQMNSLKPEDTAVYYCNADAYGTPEFTSYAVRYDYWGQGTQVTVSS | low polyreactivity |
| QVHLVESGGGLVQAGGSLRLSCAASGSTFYYYVMGWYRQAPGKETELVAAINSGGSTYYADSVKGRFTISRDNAKNTVYLQMNSLKPEDTAVYYCAKSWSYWYQYYYSGQGTQVTVSS | low polyreactivity |
| QVHLVESGGGLVQAGGSLRLSCAASGSTIDRYAMGWYRQAPGKERELVASISKRGGSTYYADSVKGRFTISRDNAKNTVYLQMNSLKPEDTAVYYCAAKWASQYDYWGQGTQVTVSS | high polyreactivity |
| QVHLVESGGGLVQAGGSLRLSCAASGSTLGYYAMGWYRQAPGKERELVASIRWDTASTYYADSVKGRFTISRDNAKNTVYLQMNSLKPEDTAVYYCNAGRPRFYRCRWYYYGYGYWGQGTQVTVSS | high polyreactivity |
| QVHLVESGGGLVQAGGSLRLSCAASGSTLSFYARGWYRQAPGKERELVAAISSSGGSTYYADSVKGRFTISRDNAKNTVYLQMNSLKPEDTAVYYCNAVRRNYGYDYWGQGTQVTVSS | high polyreactivity |
| QVHLVESGGGLVQAGGSLRLSCAASGSTVYNAMGWYRQAPGKERELVAVITDSDGSTYYADSVKGRFTISRDNAKNTVYLQMNSLKPEDTAVYYCAVTAIALYYSSGYYWGQGTQVTVSS | low polyreactivity |
| QVHLVESGGGLVQAGGSLRLSCAASGTTFGVYALGWYRQAPGKERELVAVITSRGGSTYYADSVKGRFTISRDNAKNTVYLQMNSLKPEDSAVYYCNTSTSRVPGNGEYWGQGTQVTVSS | high polyreactivity |
| QVHLVESGGGLVQAGGSLRLSCAASVRIFQIYAMGWYRQAPGKERELVATISSGTRTYYADSVKGRFTISRDNAKNTVYLQMISLKPEDTAVYYCAKTYATRHAYWAGTRYEDDYWGQGTQVTVSS | high polyreactivity |
| QVHLVESGGGLVQAGGSLRLSCAATGSIFRPYAMGWYRQAPGKERELVATITWRGGTTYYADSVKGRFTISRDNAKNTVILQMISLKPEDSAVYYCAAYVPFLTSAYDYWGHGTQVTVSS | low polyreactivity |
| QVHLVESGGGLVQAGGSLRLSCAATGSTISRYAMGWYRPAPGKERELVAAISWGGNTYYADSVKGRFTISRDNAKNTVYLQMNSLKPEDTAVYYCNRYSKLYNTMDYWGQGTQVTVSS | high polyreactivity |
| QVHLVESGGGLVQAGGSLRLSCASSGFTFRANAMGWYRPAPGKERELVAVITGSGRTYYAHSVKGRFTISRDNAKNSVYLKMNSLKPEDTAVYYCAARAAYRVSSTGYDSWGQGSQVTVSS | high polyreactivity |
| QVHLVESGGGLVQAGGSLRLSCPASGSTIRRYAMGWYRQPHGKERELVAAIRQRGTYTYYADSVKGRFTISRDTAKNTVYLQMNSLKPEDTAVYYCSGVPSLWLFNSWGQGTQVTVSS | high polyreactivity |
| QVHLVESGGGLVQAGGSLRLSCSASGRIFRVYAMGWYRQPPGKERELVAAIDQRGGRTYYADSVKGRFTISRDNAKNTVYLQMNSLKPEDTAVYYCNAEYYVSSLVESEYWGQGSQVTVSS | low polyreactivity |
| QVHLVESGGGLVQAGGSLRLSCSAYGSIFAYYAMGWYRQAPGKERELVAAIRSSGGSTYYADSVKGRFTISRDNANNTVYLQMNSLKPEVTAVYYCNVASRRIGPYVYWGQGTQVTVSS | high polyreactivity |
| QVHLVESGGGLVQAGGSLRLSFAADGSSFVRYAMGWYRQAPGKEREFVAAISRTGGSTYYADSVKGRFTLSRDNAKNTVYLQMNSLKQEVTAVFYCDARYIRGYDYWGQGTKVTVSS | high polyreactivity |
| QVHLVESGGGLVQAGGSLRLSFAASGLIFFVYAMGWYRQAPGIERELVAGIRSSGGSTYYADSVKGRFTISRDNAKNTVYLQMNSLKPEDTAVYYCAARYRYGWAYRKGGDYWGQGTKVTVSS | high polyreactivity |
| QVHLVESGGGLVQAGGSLRLSLAASGRIFGGYAMGWYRQAPGKERELVAGITNTGDTYYADSVKGRFTISRDNAKNNVYLQMNSLKPEDTAVYYCNAEGDKRRDRYDYWGQGTQVTVSS | low polyreactivity |
| QVHLVESGGGLVQAGGSLRLSSAASGFICYQYAMGWYRQAPGKERELVAAISRRGGGTYYADSVKGRFTISRDNAKNTVYLEMNRLKPEDTAVYYCNTDRLGRITFGGYDYWGQGTQVTVSS | high polyreactivity |
| QVHLVESGGGLVQAGGSLRLSSAASGITFYGNAMGWYRQAPGKERELVATISSGGSTNYADSVKGRFTISRDNAKNTVYLQMHSLKPEDTAVYYCNAAPDVNRDYEGSGDYWGQGTQVTVSS | low polyreactivity |
| QVHLVESGGGLVQAGGSLRLSSAASGRIFSFNAMGWYREAPGKERELVAAISWSNGSTFYADSVKGRFTISRDNAKNTVYLQMNSLKPEETAVYYCATGFPHPKRNVNRRNYWGQGTQVTVSS | high polyreactivity |
| QVHLVESGGGLVQAGGSLRLSSAASGRTLSRYAMGWYRQAPGKERELGASISWSGGRTYYADSVKGRFTISRDNAKNTVYLQMNSLKPEDTAVYYCAAVYVTAPFDYWGQGTQVTVSS | low polyreactivity |
| QVHLVESGGGLVQAGGSLRLSSAASGSIFGANAMGWYRQAPGKERELVAAITSGSGTNYADSVKGRFTISRDNSKNTVYLQMNSLKPEDTAVYSCAARHPYPIYDYWGQGTQVTVSS | low polyreactivity |

| Sequence | polyreactivity (PSR sort gate) |
| --- | --- |
| QVHLVESGGGLVQAGGSLRLSSAATGSIIYWYDMGWYRQAPGKERELVAAITNDGDSTYYADSVKGRFTISRDNAKNTVYLQMNSLKPEDTAVYYCAADVLFYYEYGSWGQGTQVTVSS | low polyreactivity |
| QVHLVESGGGLVQAGGSLRLSSADSGRIFTTYVMGWYRQAPGQESELVAAISARGSTYYADSVKGRFTISRDNAKNTVYLQMNSLKPEDNAVYYCAAGHRLPVYYVYPRATYNYWRQGTQVTVSS | low polyreactivity |
| QVHLVESGGGLVQAGGSLRLSSADSGRTFAYNAMRWYRPAPGKERELVAAITWSGDSTYYADSVKGRFTISRDNAKNTVYFQMNSLKPEDTEVYYCAADYFGGPSYEFDYWGQGTQVTVSS | low polyreactivity |
| QVHLVESGGGLVQAGGSLRLTCAASGFTFSDNAMGWYRQAPGKERELVAAISRSGGRTYYADSVKGRFTISRDNAKKTVYLQMNSLKPEDTAVYYCAAYQYGMDYWGQGTQVTVSS | high polyreactivity |
| QVHLVESGGGLVQAGGSLRLTCAASGSTFGTYAMGWYRPAPGKERELVATIAIGGITYYADSVKGRFTISRDNAKYTVYLQMNSLKPEDTAVDYCAKDVTAPTSRSDPSGDDYWGQGTQVTVSS | low polyreactivity |
| QVHLVESGGGLVQAGGSLRVSCAASGSIFPYAMGCYRQAPGKEREFVAAITSGVRTNYADSVKGRFTISRDNAKNNVYLQINSLKPEDTAVYYCAARYFPHYYSKYDYWGPGTQVTVSS | low polyreactivity |
| QVHLVESGGGLVQAGGSLSFSCAASGSNFTFNTMVWYRQAPGKEREKVATISSGGRTYYADSVKGRFTISRDNAKNTVYLQMNSLKPEDTPVFYCNKGYYGYTYVEYNYWGQGTPVTVSS | low polyreactivity |
| QVHLVESGGGLVQAGRSLPLSCAASGRIFIYNAMGWYRQAPGKERELVAAINRSGVSTHYADSVKGRFTISRDNAKNTVYLQMNSLKPEDTAVYYCARTVYGARSYDYWGQGTQVTVSS | low polyreactivity |
| QVHLVESGGGLVQAGRSLRLSCAASGSIFYVYAMGWYRQAPGKETQLVATISTGGSTYYADSVKGRFTISRDNAKNTVYLQMNSLKPEDTAVYYCNAQFTPRYWGGYDSWGQGNQVTVSS | low polyreactivity |
| QVHLVESGGGLVQAGVSLRLSCAASGSTFGHNAMVWYRQAPGKERELVAAISSIGGSTNYADSVKGRFTISRDNAKNTVYFQMNSLKPEDTAVYYCNAGPGLRYVSPYDYWGQGTQVTVSS | low polyreactivity |
| QVHLVESGGGLVQARGSLRLSCAASGRIFRYYVMGWYRQAPGIERELVAAITSGTSTNYADSVKGRFTISRDNAKNTVYLQMTSLKPEDTAVYYCAVRSPRGGRTRFNSNYWGQGTQVTVSS | high polyreactivity |
| QVHLVESGGGLVQARGSLRLSCAAYGRIFGRNAMGWYRQAPGKERELVAVITFSGGDTFYADSVKGRFTISRDNAKNTVYLQMNSLKPEDTAVYYCAKSQGFETYRNVSIFGYWGQGTQVTVSS | low polyreactivity |
| QVHLVESGGSLVQAGGSLRLSCAASGFIFSWYAMGWYRQAPGKERELLAAISHEGGYTYYADSVKGRFTISRDNSKNNVYLQMYSLKPEDTAVYYCAPAFRAAGRSVRYYWGHGTQVTVSS | high polyreactivity |
| QVHLVESGGVIVQAGGILRLSCAASGNIFTYYVMGWYRQAPGKERELVAAISRRGGSTYYADSVKGRFTISRDIAKNTVYLQMNSLKPEDTAVYYCAKKYPRDMDYWGQVTQVTVSS | high polyreactivity |
| QVHLVESGGVLVQAGGSLRLSCAASGFILYFNAMGWYIQAPGKERELVAVNTFRSGSTYYADSVKGRFTISRDNAKNTVNLQMNSLKPEDTAVYYCNAQSVLLSLRVELREPHEYWGHGTQVTVSS | low polyreactivity |
| QVHLVESGGVLVQAGGSLRLSCAASGIALLYYTMGWYRQAPGKERELVAAINSGGRTYYADSVKGRYTISRDNAKNTGYLQMNSLKPDDTAVYFCAAHGGADHMDYWGQGTQVTVSS | high polyreactivity |
| QVHLVESGRGLVQAGGSLRLSCAASGSTFKIYAMGWYRPAPAKERELVAAITRGGSTNYADSVKGRFTISRDTAKKTVYLQMNSLKPEDTAVYSFAASYWYRRYGTYSYDYWGHGTQVTVSS | high polyreactivity |
| QVHLVESGRGLVQAGGSLRLSCASSGSIFSRYAMGRYREAPGKVSELVAAISRRGGRTYYADSVKGRFTISRDYAKNTVYLQMKSLKPEVTAVYYCNDRRYNVPHPNRYDYWGQGTQVTVSS | high polyreactivity |
| QVHLVESGRGLVQSGGSLRLSCADSGSTFATNAMGWYRQAPGKERELVAAITSRGGTYYADSVKRRFTISRDKAKNTVYLQMNSLKPEDTAVYYCNAVSRYAFDYCGQGTQVTVSS | high polyreactivity |
| QVHLVESGVGLFQAGGSLRLSCAASGIIFRYYTMEWYIQAPGKEREVVAVITRGCSTYYADSVMGRFTISRDNAKYSVYLQMNSLKPVDTAVYFCAALRYKLPLGYWGQGTQVTVSS | high polyreactivity |
| QVHLVESRGGLDQAGGSLRLSCAASGRTVYQYAMGRNRQAPGKERELVAAITRSGSRTYYADTVKGRFTISRDNAKNTVYLQMNSLKPEDTAVYYCAADGHGGFPIDEYYYWGQGTQVTVSS | high polyreactivity |

Source: the nanobody polyreactivity screen of Harvey et al. (2022)
